Drawing on US20230181681A1, “PEPTIDE FOR SUPPRESSING CORONAVIRUS AND USE THEREOF” (priority 2020, published 2023), this text covers percent inhibition of the interaction between Spike CD-Full and N protein for 1 molecule.

In the assay the target is MERS-CoV N protein (MERS-CoV), K9N4V7.

In the case of TGCGTNCMGKLKCNRC (modifications not checked) [Spike CD-F], the percent inhibition of the interaction between Spike CD-Full and N protein was 40%.
